These results are taken from patent publication US20260217806A1 (H LUNDBECK A S, published 2026).

The test deals with brain derived alpha synuclein oligomers and fibrils (MSA and PD brain homogenates enriched for aggregated, … (UniProt P37840 1-140)). Kind of test: ELISA on MSA and PD brain homogenates enriched for aggregated, insoluble alpha synuclein (data not shown).

B1: GM37 variant 2 (antibody, human IgG1, kappa, V domains shown)
VH: EVQLLESGGGLVQTGGSLRLSCAASGFTFSSYAMTWVRQAPGKGLEWVSAIRSQGDRTDYADSVKGRFTISRDNSQNTLYLQMNSLRAEDTAVYYCAKNWAPFDSWGQGTLVTVSS
VL: not shown
notes: VH 31 and VL 8 are firmly tied to the antibody; It is a human IgG1 kappa; also called GM37v2; GM37var2
A word on the EC50: it is the concentration at which the effect is half-maximal. High values mean a need for much substance, low ones an effect from little substance. B1 yielded an EC50 of 0.09 to 0.16 nM.
